We go through 15 molecules from patent publication US20120276102A1 (Pfizer, published 2012).

For assay [1], the target named is human IL-21R expressed on cells (human, UniProt Q9HBE5 20-538). As to the kind of experiment: cell-based or functional assay.
The target of assay [2] is murine IL-21R expressed on cells (murine, UniProt Q9JHX3 20-529). Briefly: cell-based or functional assay.
Assay [3] addresses T1, murine IL-21R extracellular domain His-Flag fusion protein (murine, UniProt Q9JHX3 20-237).
T1 construct: Biotinylated in the ELISAs; also called mIL-21R-H/F; murine IL-21R-H/F
As to the kind of experiment: competition ELISA; competitor plate-bound 18A5 IgG. As for the experimental part: Blocked plates were washed 3× with PBS, and 50 μl/well of scFv/IL-21R mixtures were transferred to the appropriate plates and incubated for 1 hr at RT. Plates were washed 5× with PBS prior to the addition of a 1:6000 dilution of horseradish peroxidase-conjugated streptavidin (Southern Biotech, Birmingham, Ala.) secondary antibody to detect bound biotinylated mIL-21R-H/F. Plates were then incubated for 1 hr at RT and washed 7× with PBS. Signal was developed using 3,3′,5,5′-tetramethylbenzidine (TMB), the reaction stopped with H₂SO₄, and the absorbance read at 450 nm on an ENVISION™ plate reader (Perkin Elmer).
(ELISA stands for enzyme-linked immunosorbent assay.)

Sequence of human IL-21R expressed on cells (Q9HBE5 20-538 limits assumed): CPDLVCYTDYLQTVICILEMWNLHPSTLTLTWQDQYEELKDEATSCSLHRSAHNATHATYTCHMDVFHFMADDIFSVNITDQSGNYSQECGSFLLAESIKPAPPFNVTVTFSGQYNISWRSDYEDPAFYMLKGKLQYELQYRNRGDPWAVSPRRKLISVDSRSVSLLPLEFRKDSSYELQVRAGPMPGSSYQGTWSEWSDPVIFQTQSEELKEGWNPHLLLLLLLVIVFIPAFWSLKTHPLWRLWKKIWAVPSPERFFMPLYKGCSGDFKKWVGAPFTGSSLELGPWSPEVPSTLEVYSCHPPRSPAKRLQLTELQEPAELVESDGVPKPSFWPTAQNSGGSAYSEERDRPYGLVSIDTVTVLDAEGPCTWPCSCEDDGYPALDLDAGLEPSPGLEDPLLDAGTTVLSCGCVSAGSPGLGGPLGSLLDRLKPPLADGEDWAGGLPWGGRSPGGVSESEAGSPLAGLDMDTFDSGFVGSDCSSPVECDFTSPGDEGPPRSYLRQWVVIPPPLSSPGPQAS

B1: scFv H3 (scFv)
scFv: QVQLQESGPGLVKTSETLSLTCAVSGYSISSGYYWGWIRQPPGKGLEWIGSISHTGNTYYNPPLKSRVTISVDTSKNQFSLKLSSVTAADTAVYYCARFMGFGRPEYWGKGTLVTVSSGGGGSGGGGSGGGGSALSSELTQDPPVSVALGQTVTLTCQGDSLRTYYASWYQQKSGQAPILLLYGKHKRPSGIPDRFSGSTSGDTASLTITGAQAEDEADYYCNSRDSSGNPHVLFGGGTQLTVL
Broadly, the IC50 is the point on the concentration scale where inhibition reaches its midpoint. A high value points to weaker potency in that assay. For the molecule B1, in assay [1], the “IC50, Human IL-21R-BaF3 Neutralization Assay” value was 7.7 nM and the “IC50, Human IL-21R-TF1 Neutralization Assay” value was 98.1 nM. Also, the “IC50, Murine IL-21R-BaF3 Neutralization Assay” value in assay [2] amounted to 25.7 nM. This molecule displayed an IC50 in assay [3] of 14 nM.

B2: scFv H4 (scFv)
scFv: QVQLQESGPGLVKTSETLSLTCAVSGYSISSGYYWGWIRQPPGKGLEWIGSISHTGNTYYNPPLKSRVTISVDTSKNQFSLKLSSVTAADTAVYYCARWLGFGRPEYWGKGTLVTVSSGGGGSGGGGSGGGGSALSSELTQDPPVSVALGQTVTLTCQGDSLRTYYASWYQQKSGQAPILLLYGKHKRPSGIPDRFSGSTSGDTASLTITGAQAEDEADYYCNSRDSSGNPHVLFGGGTQLTVL
For B2, in assay [1], the “IC50, Human IL-21R-BaF3 Neutralization Assay” value was 3.8 nM and the “IC50, Human IL-21R-TF1 Neutralization Assay” value was 9.3 nM.

B3: scFv L4 (scFv)
scFv: QVQLQESGPGLVKTSETLSLTCAVSGYSISSGYYWGWIRQPPGKGLEWIGSISHTGNTYYNPPLKSRVTISVDTSKNQFSLKLSSVTAADTAVYYCARGGGISRPEYWGKGTLVTVSSGGGGSGGGGSGGGGSALSSELTQDPPVSVALGQTVTLTCQGDSLRTYYASWYQQKSGQAPILLLYGKHKRPSGIPDRFSGSTSGDTASLTITGAQAEDEADYYCSTRSSKGNPHVLFGGGTQLTVL
Consider B3, for which, in assay [1], the “IC50, Human IL-21R-BaF3 Neutralization Assay” value came to 2.1 nM and the “IC50, Human IL-21R-TF1 Neutralization Assay” value is approximately 60 nM. In assay [3], this molecule displayed an IC50 of 8 nM.

B4: scFv L10 (scFv)
scFv: QVQLQESGPGLVKTSETLSLTCAVSGYSISSGYYWGWIRQPPGKGLEWIGSISHTGNTYYNPPLKSRVTISVDTSKNQFSLKLSSVTAADTAVYYCARGGGISRPEYWGKGTLVTVSSGGGGSGGGGSGGGGSALSSELTQDPPVSVALGQTVTLTCQGDSLRTYYASWYQQKSGQAPILLLYGKHKRPSGIPDRFSGSTSGDTASLTITGAQAEDEADYYCISRSIYGNPHVLFGGGTQLTVL
Turning to B4, in assay [1], the “IC50, Human IL-21R-BaF3 Neutralization Assay” value came out at 15.1 nM and the “IC50, Human IL-21R-TF1 Neutralization Assay” value came to 7 nM. In assay [3], this molecule came in with an IC50 of 40 nM.

B5: scFv L11 (scFv)
scFv: QVQLQESGPGLVKTSETLSLTCAVSGYSISSGYYWGWIRQPPGKGLEWIGSISHTGNTYYNPPLKSRVTISVDTSKNQFSLKLSSVTAADTAVYYCARGGGISRPEYWGKGTLVTVSSGGGGSGGGGSGGGGSALSSELTQDPPVSVALGQTVTLTCQGDSLRTYYASWYQQKSGQAPILLLYGKHKRPSGIPDRFSGSTSGDTASLTITGAQAEDEADYYCSSRSRHGNPHVLFGGGTQLTVL
On to B5, for which, in assay [1], the “IC50, Human IL-21R-BaF3 Neutralization Assay” value is 4.2 nM and the “IC50, Human IL-21R-TF1 Neutralization Assay” value is 38.3 nM. The “IC50, Murine IL-21R-BaF3 Neutralization Assay” value in assay [2] was 10 nM. In assay [3], this molecule registered an IC50 of 6 nM.

B6: scFv L5 (scFv)
scFv: QVQLQESGPGLVKTSETLSLTCAVSGYSISSGYYWGWIRQPPGKGLEWIGSISHTGNTYYNPPLKSRVTISVDTSKNQFSLKLSSVTAADTAVYYCARGGGISRPEYWGKGTLVTVSSGGGGSGGGGSGGGGSALSSELTQDPPVSVALGQTVTLTCQGDSLRTYYASWYQQKSGQAPILLLYGKHKRPSGIPDRFSGSTSGDTASLTITGAQAEDEADYYCASRSSKGNPHVLFGGGTQLTVL
As to B6, in assay [1], the “IC50, Human IL-21R-BaF3 Neutralization Assay” value came to 2.1 nM and the “IC50, Human IL-21R-TF1 Neutralization Assay” value was approximately 20 nM. In addition, the “IC50, Murine IL-21R-BaF3 Neutralization Assay” value in assay [2] came to 38.5 nM. This molecule also yielded a half-inhibitory concentration (IC50) in assay [3] of 7 nM.

B7: scFv L1 (scFv)
scFv: QVQLQESGPGLVKTSETLSLTCAVSGYSISSGYYWGWIRQPPGKGLEWIGSISHTGNTYYNPPLKSRVTISVDTSKNQFSLKLSSVTAADTAVYYCARGGGISRPEYWGKGTLVTVSSGGGGSGGGGSGGGGSALSSELTQDPPVSVALGQTVTLTCQGDSLRTYYASWYQQKSGQAPILLLYGKHKRPSGIPDRFSGSTSGDTASLTITGAQAEDEADYYCASRSVSGNPHVLFGGGTQLTVL
In the case of B7, in assay [1], the “IC50, Human IL-21R-BaF3 Neutralization Assay” value is 3.7 nM and the “IC50, Human IL-21R-TF1 Neutralization Assay” value is approximately 55 nM. Moreover, the “IC50, Murine IL-21R-BaF3 Neutralization Assay” value in assay [2] was 28.8 nM. The IC50 in assay [3] came to 7 nM.

B8: scFv L3 (scFv)
scFv: QVQLQESGPGLVKTSETLSLTCAVSGYSISSGYYWGWIRQPPGKGLEWIGSISHTGNTYYNPPLKSRVTISVDTSKNQFSLKLSSVTAADTAVYYCARGGGISRPEYWGKGTLVTVSSGGGGSGGGGSGGGGSALSSELTQDPPVSVALGQTVTLTCQGDSLRTYYASWYQQKSGQAPILLLYGKHKRPSGIPDRFSGSTSGDTASLTITGAQAEDEADYYCVSRAVVGNPHVLFGGGTQLTVL
B8: in assay [1], the “IC50, Human IL-21R-BaF3 Neutralization Assay” value turned out to be 27.6 nM and the “IC50, Human IL-21R-TF1 Neutralization Assay” value was approximately 7 nM. Besides, in assay [2], the “IC50, Murine IL-21R-BaF3 Neutralization Assay” value is 13.8 nM. The IC50 in assay [3] was 100 nM.

B9: scFv L8 (scFv)
scFv: QVQLQESGPGLVKTSETLSLTCAVSGYSISSGYYWGWIRQPPGKGLEWIGSISHTGNTYYNPPLKSRVTISVDTSKNQFSLKLSSVTAADTAVYYCARGGGISRPEYWGKGTLVTVSSGGGGSGGGGSGGGGSALSSELTQDPPVSVALGQTVTLTCQGDSLRTYYASWYQQKSGQAPILLLYGKHKRPSGIPDRFSGSTSGDTASLTITGAQAEDEADYYCTTRSTQGNPHVLFGGGTQLTVL
Regarding B9, in assay [1], the “IC50, Human IL-21R-BaF3 Neutralization Assay” value is 4.1 nM and the “IC50, Human IL-21R-TF1 Neutralization Assay” value came out at 51.3 nM. In addition, the “IC50, Murine IL-21R-BaF3 Neutralization Assay” value in assay [2] was found to be 715 nM. The molecule further gave an IC50 in assay [3] of 7 nM.

B10: scFv L23 (scFv)
scFv: QVQLQESGPGLVKTSETLSLTCAVSGYSISSGYYWGWIRQPPGKGLEWIGSISHTGNTYYNPPLKSRVTISVDTSKNQFSLKLSSVTAADTAVYYCARGGGISRPEYWGKGTLVTVSSGGGGSGGGGSGGGGSALSSELTQDPPVSVALGQTVTLTCQGDSLRTYYASWYQQKSGQAPILLLYGKHKRPSGIPDRFSGSTSGDTASLTITGAQAEDEADYYCSARSVRGNPHVLFGGGTQLTVL
As to B10, in assay [1], the “IC50, Human IL-21R-BaF3 Neutralization Assay” value is 1.5 nM and the “IC50, Human IL-21R-TF1 Neutralization Assay” value amounted to 15.3 nM. This molecule yielded an IC50 in assay [3] of 12 nM.

B11: scFv L9 (scFv)
scFv: QVQLQESGPGLVKTSETLSLTCAVSGYSISSGYYWGWIRQPPGKGLEWIGSISHTGNTYYNPPLKSRVTISVDTSKNQFSLKLSSVTAADTAVYYCARGGGISRPEYWGKGTLVTVSSGGGGSGGGGSGGGGSALSSELTQDPPVSVALGQTVTLTCQGDSLRTYYASWYQQKSGQAPILLLYGKHKRPSGIPDRFSGSTSGDTASLTITGAQAEDEADYYCVARSNKGNPHVLFGGGTQLTVL
Consider B11, for which, in assay [1], the “IC50, Human IL-21R-BaF3 Neutralization Assay” value came to 2.8 nM and the “IC50, Human IL-21R-TF1 Neutralization Assay” value worked out at 27.7 nM. The “IC50, Murine IL-21R-BaF3 Neutralization Assay” value in assay [2] worked out at 3.61 nM. For the same molecule, the IC50 in assay [3] is 7 nM.

B12: scFv L2 (scFv)
scFv: QVQLQESGPGLVKTSETLSLTCAVSGYSISSGYYWGWIRQPPGKGLEWIGSISHTGNTYYNPPLKSRVTISVDTSKNQFSLKLSSVTAADTAVYYCARGGGISRPEYWGKGTLVTVSSGGGGSGGGGSGGGGSALSSELTQDPPVSVALGQTVTLTCQGDSLRTYYASWYQQKSGQAPILLLYGKHKRPSGIPDRFSGSTSGDTASLTITGAQAEDEADYYCVARSVVGNPHVLFGGGTQLTVL
Turning to B12, in assay [1], the “IC50, Human IL-21R-BaF3 Neutralization Assay” value amounted to 3.1 nM and the “IC50, Human IL-21R-TF1 Neutralization Assay” value was 37.5 nM. For the same molecule, the “IC50, Murine IL-21R-BaF3 Neutralization Assay” value in assay [2] was determined as 2.41 nM. Besides, the IC50 in assay [3] was found to be 5 nM.

B13: scFv L6 (scFv)
scFv: QVQLQESGPGLVKTSETLSLTCAVSGYSISSGYYWGWIRQPPGKGLEWIGSISHTGNTYYNPPLKSRVTISVDTSKNQFSLKLSSVTAADTAVYYCARGGGISRPEYWGKGTLVTVSSGGGGSGGGGSGGGGSALSSELTQDPPVSVALGQTVTLTCQGDSLRTYYASWYQQKSGQAPILLLYGKHKRPSGIPDRFSGSTSGDTASLTITGAQAEDEADYYCMSRSIWGNPHVLFGGGTQLTVL
Consider B13, for which, in assay [1], the “IC50, Human IL-21R-BaF3 Neutralization Assay” value was 5.9 nM and the “IC50, Human IL-21R-TF1 Neutralization Assay” value was approximately 150 nM. In assay [2], the “IC50, Murine IL-21R-BaF3 Neutralization Assay” value turned out to be 0.29 nM. Moreover, the IC50 in assay [3] was 4 nM.

B14: scFv H6 (scFv)
scFv: QVQLQESGPGLVKTSETLSLTCAVSGYSISSGYYWGWIRQPPGKGLEWIGSISHTGNTYYNPPLKSRVTISVDTSKNQFSLKLSSVTAADTAVYYCARFFGFGRPEYWGKGTLVTVSSGGGGSGGGGSGGGGSALSSELTQDPPVSVALGQTVTLTCQGDSLRTYYASWYQQKSGQAPILLLYGKHKRPSGIPDRFSGSTSGDTASLTITGAQAEDEADYYCNSRDSSGNPHVLFGGGTQLTVL
In the case of B14, in assay [1], the “IC50, Human IL-21R-BaF3 Neutralization Assay” value was 13.8 nM and the “IC50, Human IL-21R-TF1 Neutralization Assay” value is approximately 150 nM. The same molecule had an IC50 in assay [3] of 13 nM.

B15: scFv H5 (scFv)
scFv: QVQLQESGPGLVKTSETLSLTCAVSGYSISSGYYWGWIRQPPGKGLEWIGSISHTGNTYYNPPLKSRVTISVDTSKNQFSLKLSSVTAADTAVYYCARFLGFGRPEYWGKGTLVTVSSGGGGSGGGGSGGGGSALSSELTQDPPVSVALGQTVTLTCQGDSLRTYYASWYQQKSGQAPILLLYGKHKRPSGIPDRFSGSTSGDTASLTITGAQAEDEADYYCNSRDSSGNPHVLFGGGTQLTVL
B15: in assay [1], the “IC50, Human IL-21R-BaF3 Neutralization Assay” value is 7.9 nM and the “IC50, Human IL-21R-TF1 Neutralization Assay” value stood at 178 nM. In addition, the “IC50, Murine IL-21R-BaF3 Neutralization Assay” value in assay [2] is 53.7 nM. In addition, the IC50 in assay [3] came to 17 nM.
